Measured values reported in the supplement of paper PMC10567573.

B1: PLK2 (parent)
chain: MELLRTITYQPAASTKMCEQALGK

Variants of: B1
Test: protein stability index of a GFP-peptide fusion (GPS, HEK-293T) (PSI 1-6); higher = more stable
Settings: c terminus: a fixed tail appended
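Further: lentivirally expressed fusions sorted by FACS into six bins by GFP to DsRed ratio, PSI derived from sequencing read proportions per bin multiplied by bin number.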

Compared with MELLRTITYQPAKSTKMCEQALGK [A13K], MELLRTITYQPALSTKMCEQALGK [A13L] is lower in protein stability index: 2.61 for the first, 2.43 for the second.

Compared with MELLRTITYQPAMSTKMCEQALGK [A13M], MELLRTITYQPANSTKMCEQALGK [A13N] is lower in protein stability index: 2.88 for the first, 2.54 for the second.

Going from MELLRTITYQPAPSTKMCEQALGK [A13P] to MELLRTITYQPAQSTKMCEQALGK [A13Q], the protein stability index rises from 1.74 to 3.13.

Going from MELLRTITYQPARSTKMCEQALGK [A13R] to MELLRTITYQPASSTKMCEQALGK [A13S], the protein stability index rises from 2.39 to 3.29.

First: MELLRTITYQPATSTKMCEQALGK [A13T]
Second: MELLRTITYQPAVSTKMCEQALGK [A13V]
The protein stability index of the first is lower: 1.15 for the first, 1.96 for the second.

First: MELLRTITYQPAWSTKMCEQALGK [A13W]
Second: MELLRTITYQPAYSTKMCEQALGK [A13Y]
The protein stability index of the first is lower: 1.82 for the first, 2.42 for the second.

Compared with MELLRTITYQPAAATKMCEQALGK [S14A], MELLRTITYQPAACTKMCEQALGK [S14C] is lower in protein stability index: 3.14 for the first, 2.5 for the second.

Compared with MELLRTITYQPAADTKMCEQALGK [S14D], MELLRTITYQPAAETKMCEQALGK [S14E] is higher in protein stability index: 1.68 for the first, 2.3 for the second.

First: MELLRTITYQPAAFTKMCEQALGK [S14F]
Second: MELLRTITYQPAAGTKMCEQALGK [S14G]
The protein stability index of the first is higher: 2.49 for the first, 1.9 for the second.

Going from MELLRTITYQPAAHTKMCEQALGK [S14H] to MELLRTITYQPAAITKMCEQALGK [S14I], the protein stability index falls from 3.11 to 1.61.

Going from MELLRTITYQPAAKTKMCEQALGK [S14K] to MELLRTITYQPAALTKMCEQALGK [S14L], the protein stability index falls from 2.24 to 1.64.

Compared with MELLRTITYQPAAMTKMCEQALGK [S14M], MELLRTITYQPAANTKMCEQALGK [S14N] is higher in protein stability index: 2.33 for the first, 3.48 for the second.

Going from MELLRTITYQPAAPTKMCEQALGK [S14P] to MELLRTITYQPAAQTKMCEQALGK [S14Q], the protein stability index rises from 1.5 to 2.5.

First: MELLRTITYQPAARTKMCEQALGK [S14R]
Second: MELLRTITYQPAATTKMCEQALGK [S14T]
The protein stability index of the first is lower: 2.05 for the first, 2.5 for the second.

Going from MELLRTITYQPAAVTKMCEQALGK [S14V] to MELLRTITYQPAAWTKMCEQALGK [S14W], the protein stability index rises from 2.44 to 3.03.

Going from MELLRTITYQPAAYTKMCEQALGK [S14Y] to MELLRTITYQPAASAKMCEQALGK [T15A], the protein stability index falls from 3.88 to 2.17.

Compared with MELLRTITYQPAASCKMCEQALGK [T15C], MELLRTITYQPAASDKMCEQALGK [T15D] is higher in protein stability index: 2.07 for the first, 2.95 for the second.

Compared with MELLRTITYQPAASEKMCEQALGK [T15E], MELLRTITYQPAASFKMCEQALGK [T15F] is lower in protein stability index: 2.53 for the first, 1.79 for the second.

First: MELLRTITYQPAASGKMCEQALGK [T15G]
Second: MELLRTITYQPAASHKMCEQALGK [T15H]
The protein stability index of the first is lower: 2.53 for the first, 3.23 for the second.

First: MELLRTITYQPAASIKMCEQALGK [T15I]
Second: MELLRTITYQPAASKKMCEQALGK [T15K]
The protein stability index of the first is higher: 2.39 for the first, 1.68 for the second.

First: MELLRTITYQPAASLKMCEQALGK [T15L]
Second: MELLRTITYQPAASMKMCEQALGK [T15M]
The protein stability index of the first is lower: 2.23 for the first, 2.87 for the second.

First: MELLRTITYQPAASNKMCEQALGK [T15N]
Second: MELLRTITYQPAASPKMCEQALGK [T15P]
The protein stability index of the first is higher: 2.46 for the first, 1.58 for the second.

First: MELLRTITYQPAASQKMCEQALGK [T15Q]
Second: MELLRTITYQPAASRKMCEQALGK [T15R]
The protein stability index of the first is higher: 2.87 for the first, 1.44 for the second.

First: MELLRTITYQPAASSKMCEQALGK [T15S]
Second: MELLRTITYQPAASVKMCEQALGK [T15V]
The protein stability index of the first is higher: 2.41 for the first, 1.54 for the second.

Going from MELLRTITYQPAASWKMCEQALGK [T15W] to MELLRTITYQPAASYKMCEQALGK [T15Y], the protein stability index falls from 3.77 to 2.83.

First: MELLRTITYQPAASTAMCEQALGK [K16A]
Second: MELLRTITYQPAASTCMCEQALGK [K16C]
The protein stability index of the first is lower: 2.13 for the first, 2.95 for the second.

First: MELLRTITYQPAASTDMCEQALGK [K16D]
Second: MELLRTITYQPAASTEMCEQALGK [K16E]
The protein stability index of the first is higher: 2.38 for the first, 2.18 for the second.

Compared with MELLRTITYQPAASTFMCEQALGK [K16F], MELLRTITYQPAASTGMCEQALGK [K16G] is lower in protein stability index: 1.83 for the first, 1.81 for the second.

Going from MELLRTITYQPAASTHMCEQALGK [K16H] to MELLRTITYQPAASTIMCEQALGK [K16I], the protein stability index rises from 1.76 to 2.61.

Compared with MELLRTITYQPAASTLMCEQALGK [K16L], MELLRTITYQPAASTMMCEQALGK [K16M] is higher in protein stability index: 1.84 for the first, 1.85 for the second.

First: MELLRTITYQPAASTNMCEQALGK [K16N]
Second: MELLRTITYQPAASTPMCEQALGK [K16P]
The protein stability index of the first is lower: 2.01 for the first, 2.02 for the second.

First: MELLRTITYQPAASTQMCEQALGK [K16Q]
Second: MELLRTITYQPAASTRMCEQALGK [K16R]
The protein stability index of the first is higher: 2.22 for the first, 2.07 for the second.

Compared with MELLRTITYQPAASTSMCEQALGK [K16S], MELLRTITYQPAASTTMCEQALGK [K16T] is higher in protein stability index: 2.34 for the first, 2.55 for the second.

Compared with MELLRTITYQPAASTVMCEQALGK [K16V], MELLRTITYQPAASTWMCEQALGK [K16W] is higher in protein stability index: 1.96 for the first, 2.05 for the second.

First: MELLRTITYQPAASTYMCEQALGK [K16Y]
Second: MELLRTITYQPAASTKACEQALGK [M17A]
The protein stability index of the first is higher: 3.02 for the first, 2.37 for the second.

Compared with MELLRTITYQPAASTKCCEQALGK [M17C], MELLRTITYQPAASTKDCEQALGK [M17D] is lower in protein stability index: 2.07 for the first, 2.02 for the second.

Compared with MELLRTITYQPAASTKECEQALGK [M17E], MELLRTITYQPAASTKFCEQALGK [M17F] is lower in protein stability index: 1.86 for the first, 1.52 for the second.

Going from MELLRTITYQPAASTKGCEQALGK [M17G] to MELLRTITYQPAASTKHCEQALGK [M17H], the protein stability index rises from 1.53 to 2.26.

Compared with MELLRTITYQPAASTKICEQALGK [M17I], MELLRTITYQPAASTKKCEQALGK [M17K] is higher in protein stability index: 2.18 for the first, 2.98 for the second.

First: MELLRTITYQPAASTKLCEQALGK [M17L]
Second: MELLRTITYQPAASTKNCEQALGK [M17N]
The protein stability index of the first is higher: 2.84 for the first, 2.19 for the second.

Compared with MELLRTITYQPAASTKPCEQALGK [M17P], MELLRTITYQPAASTKQCEQALGK [M17Q] is higher in protein stability index: 2.04 for the first, 2.65 for the second.

Going from MELLRTITYQPAASTKRCEQALGK [M17R] to MELLRTITYQPAASTKSCEQALGK [M17S], the protein stability index falls from 2.68 to 2.33.

First: MELLRTITYQPAASTKTCEQALGK [M17T]
Second: MELLRTITYQPAASTKVCEQALGK [M17V]
The protein stability index of the first is lower: 2.74 for the first, 2.98 for the second.

Going from MELLRTITYQPAASTKWCEQALGK [M17W] to MELLRTITYQPAASTKYCEQALGK [M17Y], the protein stability index falls from 2.46 to 1.8.

Compared with MELLRTITYQPAASTKMAEQALGK [C18A], MELLRTITYQPAASTKMDEQALGK [C18D] is lower in protein stability index: 3.42 for the first, 1.94 for the second.

Going from MELLRTITYQPAASTKMEEQALGK [C18E] to MELLRTITYQPAASTKMFEQALGK [C18F], the protein stability index rises from 1.96 to 2.19.

Going from MELLRTITYQPAASTKMGEQALGK [C18G] to MELLRTITYQPAASTKMHEQALGK [C18H], the protein stability index falls from 3 to 2.34.
